Measurements taken from paper PMC5897841, “Development of a multipurpose scaffold for the display of peptide loops” (Protein Engineering, Design and Selection, 2017).

Tests used:
[1] = target: Alexa Fluor 488-labeled cRAD-TPX2_((7–43)) display protein (Pyrococcus furiosus | human) (UniProt O74036); experiment: fluorescence polarisation; fluorescence anisotropy, direct titration of kinase (CK2α 2 nM-2 μM; Aurora A D274N 2 nM-1.5 μM) into labelled peptide or display protein; 10 mM HEPES pH 7.4, 500 mM NaCl, 1 mM DTT, 0.05% P20; room temperature; 1:1 model
[2] = target: cRAD-TPX2_((7–43)) display protein (Pyrococcus furiosus | human) (UniProt O74036); experiment: SPR; Biacore T100, CM5, peptides or cRAD display proteins immobilised through their cysteine (240-400 RU), kinase as analyte 2.5 nM-2.5 μM, 25°C, 10 mM HEPES pH 7.4, 500 mM NaCl, 0.05% P20; 1:1 steady-state affinity model; CK2α data analysed at 200 s post-injection

B1: Aurora A_(D274N) kinase domain (domain or fragment)
chain: ESKKRQWALEDFEIGRPLGKGKFGNVYLAREKQSKFILALKVLFKAQLEKAGVEHQLRREVEIQSHLRHPNILRLYGYFHDATRVYLILEYAPLGTVYRELQKLSKFDEQRTATYITELANALSYCHSKRVIHRDIKPENLLLGSAGELKIANFGWSVHAPSSRRTTLCGTLDYLPPEMIEGRMHDEKVDLWSLGVLCYEFLVGKPPFEANTYQETYKRISRVEFTFPDFVTEGARDLISRLLKHNPSQRPMLREVLEHPWITANSSKPSNCQNKESASKQS
In the case of B1, the Kd [1] is reported as 98 nM and the Kd [2] is reported as 168 nM.
